The results in this text go back to the supplement of paper PMC9170038.

Data set [1] concerns MS2 coat protein. In words: apparent KD of MS2 coat protein, switch ON state; designed switch direction (-1 OFF switch, 1 ON switch): -1; higher = weaker reporter binding. The settings on record: FMN input: 0 or 200 uM; Eterna round: R93 (includes R88 designs). In outline: (§1)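 The buffer was 100 mM Tris-HCl pH 7.5 with 80 mM KCl and 4 mM MgCl2, used without or with constant ligand. In it, RNA switches transcribed on-chip from Illumina sequencing clusters were titrated with SNAP-549-labelled MS2 coat protein in twofold steps from 0.7 or 1.5 nM to 3 µM. Apparent KD for each design is the median of its normalised cluster binding-curve fits.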

The test system of data set [2] is MS2 coat protein. In words: apparent KD of MS2 coat protein, switch OFF state (with FMN for OFF switches, without FMN for ON switches); designed switch direction (-1 OFF switch, 1 ON switch): -1; higher = weaker reporter binding. The settings on record: FMN input: 0 or 200 uM; Eterna round: R93 (includes R88 designs). In a few lines: as §1

“AAGAAACAUGAGGAUCACCCAUGUCAGGAUAUCCAAGAAAGAAAGAAAGAAAGAAGAAGGAGAAGGGACAAAGG [Lucius Antonius Pedo]”: the figures for the “apparent KD of MS2 coat protein” value in data set [1] and in data set [2] were 64.8 nM and 67.3 nM, respectively.
Consider “AAGAAACAUGAGGAUCACCCAUGUGAGGAUAUGGAAGAAAGAAAGAAAGAAAGAAGAACCAGAAGGCACAAAGG [Publius Rubrius Barbarus]”, for which the “apparent KD of MS2 coat protein” value in data set [1] was 144 nM; in data set [2], 105 nM.
For the sequence “AAGAAACUAGGAUAUACAAGGAAGAAAGAAAAGAAAAGAAAACAUGAGGAUCACCCAUGUAGAAGGAGUUAGAA [EteRNA is fun!]”, the “apparent KD of MS2 coat protein” value worked out at 36.3 nM in data set [1] and 31.3 nM in data set [2].
With “AAGAACAUAGGAUAUACAAGGAAGAAAGAAAAGAAAAGAAAACAUGAGGAUCACCCAUGUAGAAGGAUGUAGAA [EteRNA is fun!]”, the “apparent KD of MS2 coat protein” value in data set [1] stood at 24.4 nM; in data set [2], 24.8 nM.
For the sequence “AAGAACCUAGGAUAUACUUGGGUAACUAAUAAACUGAUAUAACAUGAGGAUCACCCAUGUAGAAGGAGGAGAAA [JR_Exc002_Sub204]”, the “apparent KD of MS2 coat protein” value in data set [1] was 50.1 nM; in data set [2], 62.4 nM.
Turning to “AAGAACGGAGGAUAUACAUGAGGAUCACCCAUGUAAAAGAAAGAGGGAAAAGAGAAAAGUAGAAGGCCGAAGAA [Haaibre Alexander IV]”, the “apparent KD of MS2 coat protein” value in data set [1] was determined as 28 nM; in data set [2] it was 60.3 nM.
On to “AAGAACUCAGGAUAUACAAAAUAAAAGAAAAGAAAGAAAGAACAUGAGGAUCACCCAUGUAGAAGGGAGAAGAA [Sobekkare Sobekneferu]”, for which the results for the “apparent KD of MS2 coat protein” value in data set [1] and in data set [2] were 61.2 nM and 32.4 nM, respectively.
On to “AAGAACUCAGGAUAUACAUGAGGAUCACCCAUGUAAAAGAAAGAAGGGAAAGAGAAAAGUAGAAGGGAGAAGAA [Niumateped]”, for which the figures for the “apparent KD of MS2 coat protein” value in data set [1] and in data set [2] were 17.5 nM and 23.8 nM, respectively.
In the same order, the values of “AAGAAGACAGGAUAUACAUGAGGAUCACCCAUGUAAAAGAAAGAAAGGGAAAAGAAAAGUAGAAGGGUCAAGAA [Khepermaatre-setpenptah Ramesses X]” are 37.6 nM and 51.4 nM.
With “AAGAAGCGAGGAUAUACAUGAGGAUCACCCAUGUAAAAGAAAGAAAAGGGAAAGAAAAGUAGAAGGCGCAAGAA [Nebpehtire Ahmose I, Ahmosis I]”, the “apparent KD of MS2 coat protein” value in data set [1] worked out at 53 nM; in data set [2], 177 nM.
In the case of “AAGAAGGCAGGAUAUACAUGAAAGAAAGAAAAGAAAAGAAAACAUGAGGAUCACCCAUGUAGAAGGGCCAAGAA [EteRNA is fun!]”, the “apparent KD of MS2 coat protein” value in data set [1] was found to be 29.8 nM; in data set [2], 109 nM.
In the same order, the values of “AAGAAGGUAGGAUAUACAUGAGGAUCACCCAUGUAAAAGAAAGAAGGGAAAGAGAAAAGUAGAAGGACCAAGAA [Rudamon]” are 33.4 nM and 55.3 nM.
In the same order, the values of “AAGAAGUCAGGAUAUGCGAAGGCGUCUGAUAGACGAGGCUAGCAGAAGGGACAUGAGGAUCACCCAUGUAAAGA [Mat - Exclusion 4 - D83]” are 45 nM and 55 nM.
Take “AAGAAGUCAGGAUAUGCUAAAGAAAUAAAAAGAAAGAAAGAACAUGAGGAUCACCCAUGUAGAAGGGACAAGAA [Seheqenre Sankhptahi]”: the “apparent KD of MS2 coat protein” value was determined as 72.9 nM in data set [1] and 38.9 nM in data set [2].
Consider “AAGAAGUCAGGAUAUGCUGAUAGUAAAUUGAGUGAUGAGUAGCAGAAGGGACAUGAGGAUCACCCAUGUAAAGA [Opal 12]”, for which the “apparent KD of MS2 coat protein” value is 45.4 nM in data set [1] and 32.6 nM in data set [2].
In the same order, the values of “AAGAAGUGAGGAUAUACAUGAAAGAAAGAAAAGAAAAGAAAACAUGAGGAUCACCCAUGUAGAAGGCACAAGAA [EteRNA is fun!]” are 28.7 nM and 27.6 nM.
As to “AAGAAGUGAGGAUAUCGAAGACAGACGAAAAGUCUGUCAAACGAGAAGGCACAUGAGGAUCACCCAUGUAAGAA [What have we learned so far?]”, the results for the “apparent KD of MS2 coat protein” value in data set [1] and in data set [2] were 34.8 nM and 43.7 nM, respectively.
“AAGAAGUGAGGAUAUCGAAGACAGACGAAAAGUCUGUCAAACGAGAAGGCACAUGAGGAUCACCCAUGUGGGAG [Mat - Exaclusion 4 - Eli mod - D74]”: the “apparent KD of MS2 coat protein” value was 114 nM in data set [1] and 277 nM in data set [2].
On to “AAGAAGUGAGGAUAUCGAAGACUGUCGAAAAGACAGUCGAACGAGAAGGCACAUGAGGAUCACCCAUGUGAGAG [Mat - Exaclusion 4 - Eli mod - D66]”, for which the “apparent KD of MS2 coat protein” value in data set [1] is 31.9 nM; in data set [2], 46.2 nM.
With “AAGAAGUGAGGAUAUGCUGACAAUAUGAAGACUUGAGGUAUGCAGAAGGCACAUGAGGAUCACCCAUGUAAGAA [JR_Exclusion4_Sub4]”, the “apparent KD of MS2 coat protein” value in data set [1] worked out at 27.4 nM; in data set [2] it was 23.6 nM.
In the same order, the values of “AAGAAUGCAGGAUAUACAAGAAAGAAAGAAAAGAAAAGAAAACAUGAGGAUCACCCAUGUAGAAGGGCAUAGAA [EteRNA is fun!]” are 32.6 nM and 25 nM.
In the same order, the values of “AAGAAUGCAGGAUAUACAUGAGGAUCACCCAUGUAAAAGAAAGAAAAGGGAAAGAAAAGUAGAAGGGCAAAGAA [Satre-merenamun Tausret]” are 29.6 nM and 30.5 nM.
In the case of “AAGAAUGUAGGAUAUACAAGGAAGAAAGAAAAGAAAAGAAAACAUGAGGAUCACCCAUGUAGAAGGACAUAGAA [EteRNA is fun!]”, the “apparent KD of MS2 coat protein” value was 23.6 nM in data set [1] and 18.2 nM in data set [2].
For “AAGACUACAGGAUAUACAUGAGGAUCACCCAUGUAACUGACAAGCAGAGUACGGAGAAGUAGAAGGGUAGUCAA [Ruby 33]”, the “apparent KD of MS2 coat protein” value in data set [1] came to 20.3 nM; in data set [2], 30.1 nM.
“AAGAUGUCAGGAUAUGCUGCUCGUCACGAAAGUGAUGAGUAGCAGAAGGGACAUGAGGAUCACCCAUGUAAAGA [Exclusion 4.1c (Exclusion4-cac2 - mutated U at 5)]”: the figures for the “apparent KD of MS2 coat protein” value in data set [1] and in data set [2] were 112 nM and 140 nM, respectively.
On to “AAGGGACAUGAGGAUCACCCAUGUCAGGAUAUGAUGCGAAUAAAGAAAGAAGAAAGCAUCAGAAGGGACAAAAA [58%, Disencluded 3, 3]”, for which the “apparent KD of MS2 coat protein” value in data set [1] turned out to be 33.7 nM; in data set [2], 57.6 nM.
With “AAGGUUGGAGGAUAUACAUAGAUACAGAUACAUGUAGACGUACAUGAGGAUCACCCAUGUAGAAGGCCAAUAUA [Mat - Same state - Mayanna Mod - D146]”, the results for the “apparent KD of MS2 coat protein” value in data set [1] and in data set [2] were 137 nM and 88.6 nM, respectively.
Consider “AAGUAGCUAGGAUAUACAUAGAUACAGAUUCAUGUAGAACUACAUGAGGAUCACCCAUGUAGAAGGAGCUAAUA [AJ 35]”, for which the “apparent KD of MS2 coat protein” value in data set [1] turned out to be 31.4 nM; in data set [2], 60.3 nM.
In the case of “AAGUUGGUAGGAUAUACGUGCAAUUGGUGUGUCCGGAAAAAACAUGAGGAUCACCCAUGUAGAAGGACCAAAAA [Quonmabi]”, the “apparent KD of MS2 coat protein” value in data set [1] was 47.5 nM; in data set [2], 36.3 nM.
In the same order, the values of “AAUAAACAUGAGGAUCACCCAUGUGAGGAUAUACAGAUUAUAAGAAAAAAAAAAAAAAGUAGAAGGCACAUAUA [Default title]” are 17.6 nM and 45.9 nM.
